Experimental data taken from patent publication US20210079089A1 (SURROZEN OPERATING, published 2021).

Experiments:
[1] = target: T1, LRP6e1e2 (UniProt O75581 20-630, limits assumed, C-terminally biotinylated); assay: Octet BLI, affinity class
T1 construct: domain: E1E2; also called LRP6 E1E2 domains
T1 sequence (looked up): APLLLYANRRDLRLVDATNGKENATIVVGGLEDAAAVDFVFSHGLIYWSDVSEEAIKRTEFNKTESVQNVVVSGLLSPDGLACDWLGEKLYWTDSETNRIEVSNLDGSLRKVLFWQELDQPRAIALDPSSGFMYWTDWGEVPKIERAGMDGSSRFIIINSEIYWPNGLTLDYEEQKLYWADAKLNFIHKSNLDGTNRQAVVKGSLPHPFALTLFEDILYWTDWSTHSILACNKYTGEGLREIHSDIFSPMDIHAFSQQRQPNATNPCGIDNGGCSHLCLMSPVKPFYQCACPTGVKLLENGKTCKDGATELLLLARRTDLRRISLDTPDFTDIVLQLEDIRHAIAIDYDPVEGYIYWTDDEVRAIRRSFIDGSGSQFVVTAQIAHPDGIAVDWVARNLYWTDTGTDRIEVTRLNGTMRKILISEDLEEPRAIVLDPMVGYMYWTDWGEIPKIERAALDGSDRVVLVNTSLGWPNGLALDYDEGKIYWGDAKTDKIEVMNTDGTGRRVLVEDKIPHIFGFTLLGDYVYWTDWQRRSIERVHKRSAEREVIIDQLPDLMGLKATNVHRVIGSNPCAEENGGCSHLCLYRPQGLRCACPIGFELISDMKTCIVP
Protocol: (§1) Binding kinetics of antibody fragments to LRP5 extracellular domain (LRP5 ECD) and/or LRP6 extracellular domain (LRP6 ECD) protein targets was determined by bio-layer interferometry (BLI) using Octet Red 96 (PALL ForteBio, Fremont, Calif.) instruments at 30° C., 1000 rpm with streptavidin (SA) biosensors. C-terminal biotinylated LRP ECD recombinant protein was diluted to 20 nM in the running buffer (PBS, 0.05% Tween-20, 0.5% BSA, pH 7.2) and captured to the SA biosensor until coupling length reached 0.2 nm. Following capture of the LRP5 or LRP6, the SA biosensor with captured biotinylated-LRP5 or biotinylated LRP6 was dipped into wells containing the relevant antibody fragment at […] (0, 1.37, 4.12, 12.4, 37, 111.1, 333.3, 1000 nM) in running buffer, plus a well with only running buffer as a reference channel. KD was determined by global fitting, 1:1 binding model according to manufacturer recommended settings.

[2] = target: T2, LRP6E3E4_O75581_631-1246 (Homo sapiens (Human), UniProt O75581 631-1246, biotinylated in the BLI/SPR assays (C-terminal biotin acceptor peptide)); assay: Octet BLI, affinity class
T2 construct: The entry holds residues 631-1246 of UniProt O75581 followed by a biotin acceptor peptide and eight His
T2 sequence: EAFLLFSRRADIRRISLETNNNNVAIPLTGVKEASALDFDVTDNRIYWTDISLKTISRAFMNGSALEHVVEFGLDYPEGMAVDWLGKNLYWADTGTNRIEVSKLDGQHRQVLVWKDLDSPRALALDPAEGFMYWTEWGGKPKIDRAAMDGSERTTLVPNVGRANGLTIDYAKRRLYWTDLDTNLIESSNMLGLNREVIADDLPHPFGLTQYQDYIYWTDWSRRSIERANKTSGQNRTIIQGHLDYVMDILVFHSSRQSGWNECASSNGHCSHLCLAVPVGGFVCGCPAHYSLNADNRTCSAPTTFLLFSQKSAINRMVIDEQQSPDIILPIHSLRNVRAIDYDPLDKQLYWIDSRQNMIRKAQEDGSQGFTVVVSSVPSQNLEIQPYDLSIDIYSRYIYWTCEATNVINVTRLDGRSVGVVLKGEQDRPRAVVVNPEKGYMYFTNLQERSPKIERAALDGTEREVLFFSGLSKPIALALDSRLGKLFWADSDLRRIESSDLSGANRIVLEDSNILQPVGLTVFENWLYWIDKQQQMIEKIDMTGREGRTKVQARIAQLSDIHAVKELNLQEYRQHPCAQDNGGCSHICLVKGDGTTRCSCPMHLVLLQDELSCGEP
Protocol: as §1

[3] = target: T2, LRP6E3E4_O75581_631-1246; assay: Octet BLI or BIAcore SPR; Table 1B (heavy-chain-only clones)
[4] = target: T2, LRP6E3E4_O75581_631-1246; assay: Octet BLI or BIAcore SPR
[5] = target: T3, biotinylated-LRP6 CRD (UniProt O75581 631-1246, limits assumed, biotinylated); assay: Octet BLI, biotinylated LRP6; wild type 009S-E04, not an alanine mutant
T3 construct: LRP6 has no CRD
T3 sequence (looked up): T2 sequence
Protocol: as §1
One antibody fragment, 009S-E04, was selected for alanine-scanning mutagenesis of CDRs, and the respective LRP6 binding affinities of the various mutants were determined by Octet BLI as described in Example 1.

[6] = target: T4, LRP6E3E4_O75581_631-1246 (Homo sapiens (Human), UniProt O75581 631-1246); assay: co-crystal structure (figure legend)
T4 construct: also called LRP6E3E4 construct used for structural studies
T4 sequence: T2 sequence
Protocol: (§2) Structure of Lrp6E3E4:VHH/Fab complexes were determined by molecular replacement method using Phaser [Phaser crystallographic software. A. J. McCoy, R. W. Grosse-Kunstleve, P. D. Adams, M. D. Winn, L. C. Storoni, and R. J. Read. J Appl Crystallogr 40, 658-674 (2007)] with published structures Lrp6E3E4 [PDB code: 4AOP; Chen S, Bubeck D, MacDonald B T, Liang W X, Mao J H, Malinauskas T, Llorca O, Aricescu A R, Siebold C, He X, Jones E Y. Dev. Cell 21 848-61 (2011)] and a VHH or sdAb [PDB code: 6B20, chain E; Gulati S, Jin H, Masuho I, Orban T, Cai Y, Pardon E, Martemyanov K A, Kiser P D, Stewart P L, Ford C P, Steyaert J, Palczewski K. Nat Commun 91996 (2018)], followed by refinement and validation by MolProbity as implemented in Phenix [PHENIX: a comprehensive Python-based system for macromolecular structure solution. P. D. Adams, P. V. Afonine, G. Bunkoczi, V. B. Chen, I. W. Davis, N. Echols, J. J. Headd, L. W. Hung, G. J. Kapral, R. W. Grosse-Kunstleve, A. J. McCoy, N. W. Moriarty, R. Oeffner, R. J. Read, D. C. Richardson, J. S. Richardson, T. C. […]
(§3) Diffraction quality crystals of Lrp6E3E4:VHH36 (concentration=14.0 mg/mL) were obtained by grid-screen optimization in a condition containing 1.6 M ammonium sulfate and 0.1 M Tris pH 8.2. […] Structure of Lrp6E3E4:VHH36 complex was determined at a resolution of 2.70 Å, and refined to Rcryst and Rfree factors of 18.6% and 22.8%, respectively.

[7] = target: T2, LRP6E3E4_O75581_631-1246; assay: co-crystal structure, column Antigen
Protocol: as §2, §3

B1: 009S-D04 (VHH)
VHH: QVKLEESGGGLVQPGGSLRLSCETSATIVSIYRINWYRQAPGKQREWVAGITSSGRTIYADSVKGRFTISRDNAKNTVYLQMNNLKPEDTAVYYCNAASTVTAWPYYGPDYWGKGTLVTVSS
Question: B1 was tested. Which Kd [1] did it give?
Answer: < 500 nM

Question: And the Kd [2]?
Answer: < 500 nM

Question: And the Kd [3]?
Answer: > 500 nM

B2: 009S-E04 (VHH)
VHH: DVQLVESGGGLVQAGGSLRLACAGSGRIFAIYDIAWYRHPPGNQRELVAMIRPVVTEIDYADSVKGRFTISRNNAMKTVYLQMNNLKPEDTAVYYCNAKRPWGSRDEYWGQGTQVTVSS
Question: With B2 as the binder, how does the Kd [4] read?
Answer: < 500 nM

Question: What about the Kd [2] of the same binder?
Answer: < 500 nM

Question: What about the Kd [5] of the same binder?
Answer: < 100 nM

B3: VHH36 (013S-D05) (VHH)
VHH: QVKLEESGGGLVQAGGSLRLSCAASGRIFSIYDMGWFRQAPGKEREFVSGIRWSGGTSYADSVKGRFTISKDNAKNTIYLQMNNLKAEDTAVYYCGSRGYWGQGTLVTVSS
modifications: Gln1 modified as pyroglutamate
notes: construct of the crystal structure
Question: Does B3 bind [6]?
Answer: binds

B4: VHH36 (013S-D05) (VHH)
VHH: B3 VHH
modifications: Gln1 modified as pyroglutamate (in the crystal structure)
notes: Construct of the crystal structure, with C-terminal GSGSG-His6; the complex was treated with carboxypeptidase A and B before crystallisation
Question: Does B4 bind [7]?
Answer: binds
